Results on 18 substances are retold here after patent publication US20160272948A1.

pKd: −log10 of the molar value.

Assay [1] concerns the target 16055 NFL TD CC GL2 trimer with N332 restored. The assay can be described thus: ELISA, OD 450 nm.
Assay [2] addresses Δ276 Δ360 Δ463. The assay can be described thus: ELISA, OD 450 nm. (In an ELISA, binding on a coated surface is turned into a signal by an enzyme label.)
Assay [3] has as its target Δ276 Δ301 Δ360 Δ463. The assay can be described thus: ELISA, OD 450 nm.
The target in assay [4] is JRFL NFL TD15 trimer (HIV-1 strain JRFL (subtype B)). The assay can be described thus: ELISA, OD 450 nm; His-tagged trimer captured by anti-His mAb on the plate, antibody titrated.
The target in assay [5] is JRFL NFL TD15 CC trimer (HIV-1 strain JRFL (subtype B)). The assay can be described thus: ELISA, OD 450nm; antibody titrated on the captured trimer.
Assay [6] concerns the target JRFL SOSIP TD. The assay can be described thus: BLI; IgG immobilized on a bio-sensor, trimer as analyte in solution, series from 400nM. Background: BLI is a label-free optical method that tracks binding on a fibre tip over time.
Assay [7] addresses 16055 NFL TD8 trimer (HIV-1 strain 16055 (subtype C)). The assay is described as above.
Assay [8] has as its target 16055 NFL TD8 CC trimer (HIV-1 strain 16055 (subtype C)). The assay can be described thus: BLI; IgG immobilized on a bio-sensor, trimer as analyte in solution, series from 200nM.
Assay [9] deals with 16055 NFL TD8 trimer (HIV-1 strain 16055 (subtype C)). The assay can be described thus: BLI (Octet), series from 200nM, 1:1 global fit; paragraph 228: IgG on anti-human IgG Fc sensors, trimer as analyte.
In assay [10] the target is JRFL NFL TD15 trimer (HIV-1 strain JRFL (subtype B)). The assay is described as above.
Assay [11] deals with 16055 NFL TD8 trimer (HIV-1 strain 16055 (subtype C)). The assay can be described thus: ELISA, OD 450 nm; His-tagged trimer captured by anti-His mAb on the plate, antibody titrated.
The target of assay [12] is 16055 NFL TD GL L568G. The assay can be described thus: ELISA, OD 450nm, mAb 5 to 0.00032 ug/mL on the trimer.
The target of assay [13] is 16055 NFL TD8 trimer (HIV-1 strain 16055 (subtype C)). The assay can be described thus: ELISA, OD 450nm; antibody titrated on the captured trimer.
The target of assay [14] is JRFL NFL TD15 trimer (HIV-1 strain JRFL (subtype B)). The assay is described as above.
For assay [15], the target named is 16055 NFL TD8 CC trimer (HIV-1 strain 16055 (subtype C)). The assay can be described thus: ELISA, OD 450nm, mAb 5 to 0.00032 ug/mL on the trimer, without sCD4.
In assay [16] the target is 16055 NFL TD8 trimer (HIV-1 strain 16055 (subtype C)). The assay is described as above.
Assay [17] deals with 16055 NFL TD8 CC trimer (HIV-1 strain 16055 (subtype C)). The assay can be described thus: ELISA, OD 450nm; antibody titrated on the captured trimer.
The target in assay [18] is JRFL NFL TD15 trimer (HIV-1 strain JRFL (subtype B)). The assay can be described thus: BLI (Octet), IgG on anti-human Fc sensors, trimer as analyte, global fit 1:1.
Assay [19] deals with BG505 NFL CC trimer (HIV-1 strain BG505 (subtype A)). The assay can be described thus: ELISA, OD 450nm; antibody titrated on the captured trimer.
Assay [20] addresses JRFL SOSIP TD. The assay can be described thus: BLI; VRC03 Fab as analyte in solution (series from 400nM), trimer immobilized on the sensor.
Assay [21] deals with 16055 NFL TD8 CC trimer (HIV-1 strain 16055 (subtype C)). The assay can be described thus: BLI; VRC03 Fab as analyte in solution (series from 6400nM), trimer immobilized on the sensor.
Assay [22] has as its target 16055 NFL TD8 trimer (HIV-1 strain 16055 (subtype C)). The assay is described as above.
Assay [23] has as its target Δ276 Δ360 Δ463. The assay can be described thus: ELISA, His-captured trimer, OD 450 nm.
In assay [24] the target is Δ276 Δ301 Δ360 Δ463. The assay can be described thus: ELISA, His-captured trimer, OD 450 nm.
For assay [25], the target named is 16055 NFL TD CC GL2 trimer with N332 restored. The assay can be described thus: ELISA, His-captured trimer, OD 450 nm.
Assay [26] deals with Δ276 Δ360 Δ463. The assay can be described thus: ELISA, trimer on the plate without His-capture (panel 'plate 2G12'), OD 450 nm.
Assay [27] addresses Δ276 Δ301 Δ360 Δ463. The assay is described as above.
In assay [28] the target is 16055 NFL TD CC GL2 trimer with N332 restored. Described as above.
For assay [29], the target named is 16055 NFL TD8 trimer (HIV-1 strain 16055 (subtype C)). The assay can be described thus: BLI (Octet), IgG on anti-human Fc sensors, trimer as analyte, global fit 1:1.

As for VRC13 (antibody), in [1], the EC50 (read off the curve) – broadly, the concentration needed to bring the measured effect to its halfway point – amounted to 0.1 µg/mL.

Take VRC03 (antibody): the EC50 (read off the curve) in assay [2] stood at 0.04 µg/mL; in assay [3], 0.04 µg/mL; in assay [4], 0.2 µg/mL; in [5] it was 0.2 µg/mL.

On to VRC06b (antibody), for which the EC50 (read off the curve) amounted to 0.03 µg/mL in assay [2]; 0.03 µg/mL in [3]; 0.1 µg/mL in assay [1]; 0.08 µg/mL in assay [4]; 0.2 µg/mL in [5].

For PG16 (antibody), the pKd (commonly the Kd on a negative log10 scale, so that one unit is a factor of ten) was 7.37 in [6]; 7.53 in [7]; 7.57 in [8]; 7.54 in assay [9]; 7.39 in [10]. Moreover, the koff (commonly a measure of how fast the partners let go of each other) in [9] was determined as 0.0017 s⁻¹; in assay [10], 0.0032 s⁻¹. For the same substance, the kon – broadly, the rate constant with which the complex forms – in assay [9] came to 58000 M⁻¹ s⁻¹; in assay [10], 77000 M⁻¹ s⁻¹. Besides, the concentration for a half-maximal effect (EC50 (read off the curve)) worked out at 0.09 µg/mL in assay [11], 0.03 µg/mL in [4] and 0.07 µg/mL in [12].

For VRC05 (antibody), the EC50 (read off the curve) in [1] was determined as 0.1 µg/mL.

As to PGT121 (antibody), the EC50 (read off the curve) came to 0.07 µg/mL in assay [13] and 0.2 µg/mL in assay [14].

Take PGT145 (antibody): the pKd in [6] was 8.36; in assay [7] it was 7.39; in assay [8], 7.48; in assay [9], 7.40; in assay [18], 8.30. The EC50 (read off the curve) in assay [2] was 0.01 µg/mL; in [3] it was 0.01 µg/mL; in assay [1], 0.02 µg/mL; in assay [11], 0.1 µg/mL; in assay [4], 0.2 µg/mL; in assay [15], 0.07 µg/mL. The EC50 (read off the curve) in assay [16] stood at 0.07 µg/mL; in [17], 0.04 µg/mL; in [5], 0.04 µg/mL. In addition, the koff in assay [9] was determined as 0.0044 s⁻¹; in assay [10], 0.00067 s⁻¹. The kon in [9] is 110000 M⁻¹ s⁻¹; in assay [10], 120000 M⁻¹ s⁻¹.

Regarding CD4-Ig2 (Fc fusion), the concentration for a half-maximal effect (EC50 (read off the curve)) in assay [2], in assay [3] and in assay [1] was 0.04 µg/mL in each case.

Regarding VRC16 (antibody), the EC50 (read off the curve) turned out to be 0.03 µg/mL in assay [2], 0.03 µg/mL in [3] and 0.05 µg/mL in assay [1].

Turning to VRC01 (antibody), the EC50 (read off the curve) in [2] was found to be 0.03 µg/mL; in [3], 0.03 µg/mL; in [1] it was 0.1 µg/mL; in [19], 0.2 µg/mL.

For the substance PGT128 (antibody), the EC50 (read off the curve) in assay [13] and in [14] was 0.05 µg/mL each time.

VRC03 Fab: the pKd was 7.88 in assay [20], 6.22 in assay [21] and 6.77 in assay [22].

In the case of 8ANC131 (antibody), the EC50 (read off the curve) in assay [2] turned out to be 0.03 µg/mL; in assay [3], 0.03 µg/mL; in [1], 0.1 µg/mL.

For 8ANC134 (antibody), the figures for the EC50 (read off the curve) in assay [2], in assay [3] and in assay [1] were 0.03 µg/mL, 0.03 µg/mL and 0.1 µg/mL, respectively.

Take 2G12 (antibody): the EC50 (read off the curve) in assay [23] was 0.1 µg/mL; in [24], 0.1 µg/mL; in assay [25], 0.1 µg/mL; in assay [26], 0.04 µg/mL; in assay [27] it was 0.04 µg/mL; in assay [28] it was 0.04 µg/mL.

As to HJ16 (antibody), the 50% effective concentration (EC50 (read off the curve)) in assay [1] was determined as 0.02 µg/mL.

For the substance PGDM1400 (antibody), the negative-log Kd (pKd) in assay [6] is 5.55; in [7] it was 7.67; in [8], 7.66; in assay [10], 7.44; in assay [29] it was 7.68. The koff amounted to 0.0015 s⁻¹ in assay [9] and 0.0011 s⁻¹ in assay [10]. Further, the association rate constant (kon) in assay [9] amounted to 73000 M⁻¹ s⁻¹; in [10], 31000 M⁻¹ s⁻¹. Moreover, the concentration giving a half-maximal response (EC50 (read off the curve)) in assay [11] worked out at 0.06 µg/mL; in [17] it was 0.1 µg/mL.

For VRC18b (antibody), the EC50 (read off the curve) in assay [2] and in assay [3] was 0.04 µg/mL in each case.
